# Reference: paper PMC9482650, “Quantitative fragmentomics allow affinity mapping of interactomes” (Nature Communications, 2022)
# T1: APBA1_2, Q02410
# T1 sequence (Q02410 742-832, limits assumed, looked up): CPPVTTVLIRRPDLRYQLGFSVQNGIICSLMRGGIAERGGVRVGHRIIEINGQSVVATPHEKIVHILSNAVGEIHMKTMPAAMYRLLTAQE
# T2: DLG3_3, Q92796
# T2 sequence (Q92796 374-475, limits assumed, looked up): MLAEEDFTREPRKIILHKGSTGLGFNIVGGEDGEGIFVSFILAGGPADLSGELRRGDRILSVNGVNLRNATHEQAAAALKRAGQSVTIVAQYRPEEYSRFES
# T3: GRIP1_4, Q9Y3R0
# T3 sequence (Q9Y3R0 467-571, limits assumed, looked up): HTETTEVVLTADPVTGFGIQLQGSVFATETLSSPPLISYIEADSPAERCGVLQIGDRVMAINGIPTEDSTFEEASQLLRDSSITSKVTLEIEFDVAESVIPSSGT
# T4: GRIP1_7, Q9Y3R0
# T4 sequence (Q9Y3R0 999-1096, limits assumed, looked up): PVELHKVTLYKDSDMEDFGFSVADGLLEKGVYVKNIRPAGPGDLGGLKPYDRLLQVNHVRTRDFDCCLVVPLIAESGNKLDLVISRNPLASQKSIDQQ
# T5: LIN7B, Q9HAP6
# T5 sequence (Q9HAP6 88-185, limits assumed, looked up): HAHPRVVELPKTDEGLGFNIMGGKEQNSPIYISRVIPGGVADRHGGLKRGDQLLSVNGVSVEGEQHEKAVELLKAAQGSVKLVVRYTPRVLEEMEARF
# T6: MPDZ_12, O75970
# T6 sequence (O75970 1857-1958, limits assumed, looked up): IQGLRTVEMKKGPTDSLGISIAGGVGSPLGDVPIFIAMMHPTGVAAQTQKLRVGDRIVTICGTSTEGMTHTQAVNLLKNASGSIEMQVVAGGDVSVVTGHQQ
# T7: MPP2, Q14168
# T7 sequence (Q14168 180-250, limits assumed, looked up): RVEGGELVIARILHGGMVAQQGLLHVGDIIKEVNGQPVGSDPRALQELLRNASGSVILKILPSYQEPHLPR
# T8: NHERF3_4, Q5T2W1
# T8 sequence (Q5T2W1 373-468, limits assumed, looked up): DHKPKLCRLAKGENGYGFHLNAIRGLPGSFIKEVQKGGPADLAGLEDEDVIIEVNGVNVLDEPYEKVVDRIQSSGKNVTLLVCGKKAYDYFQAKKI
# T9: PDZD2_2, O15018
# T9 sequence (O15018 329-429, limits assumed, looked up): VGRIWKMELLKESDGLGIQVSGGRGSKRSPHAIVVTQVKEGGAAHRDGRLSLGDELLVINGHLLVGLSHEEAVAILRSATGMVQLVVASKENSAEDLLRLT
# T10: PTPN13_1, Q12923
# T10 sequence (Q12923 1088-1188, limits assumed, looked up): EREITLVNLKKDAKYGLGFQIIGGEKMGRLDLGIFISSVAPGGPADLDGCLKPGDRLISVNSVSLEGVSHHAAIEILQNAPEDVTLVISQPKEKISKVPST
# T11: SNTG2, Q9NY99
# T11 sequence (Q9NY99 68-166, limits assumed, looked up): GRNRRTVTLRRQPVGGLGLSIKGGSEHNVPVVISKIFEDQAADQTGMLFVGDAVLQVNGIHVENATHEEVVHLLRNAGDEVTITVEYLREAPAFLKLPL
# Experiments:
# Assay in all cases: holdup assay
# Set-up in all cases: key: below the threshold = too weak to quantify, mostly under pKd 3.1 to 4
# [1] = target: AHNAK1, Q09666
# [2] = target: T1, APBA1_2, Q02410
# [3] = target: DLG1_2, Q12959
# [4] = target: T2, DLG3_3, Q92796
# [5] = target: DLG4_2, P78352
# [6] = target: FRMPD2_1, Q68DX3
# [7] = target: FRMPD2_2, Q68DX3
# [8] = target: FRMPD4, Q14CM0
# [9] = target: GRID2IP_2, A4D2P6
# [10] = target: T3, GRIP1_4, Q9Y3R0
# [11] = target: T4, GRIP1_7, Q9Y3R0
# [12] = target: GRIP2_7, Q9C0E4
# [13] = target: LIMK2, P53671
# [14] = target: T5, LIN7B, Q9HAP6
# [15] = target: LNX1_3, Q8TBB1
# [16] = target: MAGI2_4, Q86UL8
# [17] = target: MAGI2_6, Q86UL8
# [18] = target: T6, MPDZ_12, O75970
# [19] = target: T7, MPP2, Q14168
# [20] = target: T8, NHERF3_4, Q5T2W1
# [21] = target: NHERF4_2, Q86UT5
# [22] = target: NOS1, P29475
# [23] = target: PARD3_3, Q8TEW0
# [24] = target: T9, PDZD2_2, O15018
# [25] = target: T10, PTPN13_1, Q12923
# [26] = target: SCRIB_3, Q14160
# [27] = target: T11, SNTG2, Q9NY99
# [28] = plain residues with an end cap or a label only (N-terminal biotin on a linker: ado-ado)
# [29] = plain residues with an end cap or a label only (N-terminal biotin on a linker: ttds)
# Chain of GRID2IP_2, A4D2P6 (A4D2P6 272-370): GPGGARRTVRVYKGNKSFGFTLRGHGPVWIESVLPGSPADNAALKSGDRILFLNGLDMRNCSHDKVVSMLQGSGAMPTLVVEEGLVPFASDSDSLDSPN
# Chain of PARD3_3, Q8TEW0 (Q8TEW0 582-685): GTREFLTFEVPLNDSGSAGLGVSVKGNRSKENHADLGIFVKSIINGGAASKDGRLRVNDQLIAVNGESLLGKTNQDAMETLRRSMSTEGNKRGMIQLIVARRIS
# Chain of FRMPD4, Q14CM0 (Q14CM0 67-160): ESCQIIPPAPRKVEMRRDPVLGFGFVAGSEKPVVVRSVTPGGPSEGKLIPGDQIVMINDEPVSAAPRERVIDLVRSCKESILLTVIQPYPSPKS
# Chain of SCRIB_3, Q14160 (Q14160 999-1103): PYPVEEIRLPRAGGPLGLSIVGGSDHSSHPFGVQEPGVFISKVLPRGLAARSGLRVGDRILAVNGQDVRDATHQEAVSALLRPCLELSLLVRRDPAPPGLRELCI
# Chain of MAGI2_4, Q86UL8 (Q86UL8 772-865): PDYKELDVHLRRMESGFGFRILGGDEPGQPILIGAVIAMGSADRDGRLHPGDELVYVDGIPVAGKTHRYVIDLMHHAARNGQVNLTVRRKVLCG
# Chain of DLG1_2, Q12959 (Q12959 314-412): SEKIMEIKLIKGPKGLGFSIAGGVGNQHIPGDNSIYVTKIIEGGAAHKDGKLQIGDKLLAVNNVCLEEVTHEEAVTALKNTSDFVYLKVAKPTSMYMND
# Chain of FRMPD2_1, Q68DX3 (Q68DX3 770-861): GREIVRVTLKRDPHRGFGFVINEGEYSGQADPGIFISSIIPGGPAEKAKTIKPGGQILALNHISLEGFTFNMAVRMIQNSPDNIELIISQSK
# Chain of LNX1_3, Q8TBB1 (Q8TBB1 500-596): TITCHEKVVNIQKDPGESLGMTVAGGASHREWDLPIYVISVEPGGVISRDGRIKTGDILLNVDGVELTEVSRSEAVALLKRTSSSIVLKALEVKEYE
# Chain of FRMPD2_2, Q68DX3 (Q68DX3 944-1038): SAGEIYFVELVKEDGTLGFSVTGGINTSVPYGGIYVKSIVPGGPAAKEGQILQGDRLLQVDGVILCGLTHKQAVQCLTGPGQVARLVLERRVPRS
# Chain of MAGI2_6, Q86UL8 (Q86UL8 1141-1229): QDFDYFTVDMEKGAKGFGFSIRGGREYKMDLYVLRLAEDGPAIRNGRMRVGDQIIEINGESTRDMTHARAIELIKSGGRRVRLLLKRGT
# Chain of GRIP2_7, Q9C0E4 (Q9C0E4 934-1023): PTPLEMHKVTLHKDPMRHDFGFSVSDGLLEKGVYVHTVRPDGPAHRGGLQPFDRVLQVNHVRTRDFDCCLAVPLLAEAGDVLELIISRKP
# Chain of AHNAK1, Q09666 (Q09666 4-100): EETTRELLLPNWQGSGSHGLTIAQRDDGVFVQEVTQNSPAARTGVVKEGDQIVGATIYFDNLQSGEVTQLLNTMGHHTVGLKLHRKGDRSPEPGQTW
# Chain of LIMK2, P53671 (P53671 143-248): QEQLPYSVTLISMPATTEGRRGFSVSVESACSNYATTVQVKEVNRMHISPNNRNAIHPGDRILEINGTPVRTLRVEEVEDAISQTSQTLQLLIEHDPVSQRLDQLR
# Chain of NOS1, P29475 (P29475 9-101): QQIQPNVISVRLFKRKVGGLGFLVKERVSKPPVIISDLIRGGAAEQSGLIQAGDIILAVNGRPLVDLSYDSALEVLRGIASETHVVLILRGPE
# Chain of DLG4_2, P78352 (P78352 155-259): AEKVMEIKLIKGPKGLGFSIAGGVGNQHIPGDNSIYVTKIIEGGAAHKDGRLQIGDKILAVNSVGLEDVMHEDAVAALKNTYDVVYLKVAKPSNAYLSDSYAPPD
# Chain of NHERF4_2, Q86UT5 (Q86UT5 220-308): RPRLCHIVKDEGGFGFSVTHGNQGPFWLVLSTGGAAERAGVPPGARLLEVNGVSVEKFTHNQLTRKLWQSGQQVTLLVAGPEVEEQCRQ
binder,measurement,setting,value
"FVHPILQSAV [PRKCA, P17252]",pKd,[1]; [28],below the threshold
same,pKd,[2]; [28],3.69
same,pKd,[3]; [28],4.52
same,pKd,[4]; [28],3.57
same,pKd,[5]; [28],4.53
same,pKd,[6]; [28],below the threshold
same,pKd,[7]; [28],3.73
same,pKd,[8]; [28],below the threshold
same,pKd,[9]; [28],4.36
same,pKd,[10]; [28],below the threshold
same,pKd,[11]; [28],below the threshold
same,pKd,[12]; [28],below the threshold
same,pKd,[13]; [28],below the threshold
same,pKd,[14]; [28],below the threshold
same,pKd,[15]; [28],below the threshold
same,pKd,[16]; [28],below the threshold
same,pKd,[17]; [28],3.66
same,pKd,[18]; [28],below the threshold
same,pKd,[19]; [28],below the threshold
same,pKd,[20]; [28],below the threshold
same,pKd,[21]; [28],below the threshold
same,pKd,[22]; [28],3.57
same,pKd,[23]; [28],below the threshold
same,pKd,[24]; [28],5.1
same,pKd,[25]; [28],below the threshold
same,pKd,[26]; [28],4.3
same,pKd,[27]; [28],3.64
"DPRNTQTSQI [ABRAXAS2, Q15018]",pKd,[1]; [29],3.53
same,pKd,[2]; [29],3.71
same,pKd,[3]; [29],3.84
same,pKd,[4]; [29],3.66
same,pKd,[5]; [29],3.55
same,pKd,[6]; [29],below the threshold
same,pKd,[7]; [29],below the threshold
same,pKd,[8]; [29],below the threshold
same,pKd,[9]; [29],4.24
same,pKd,[10]; [29],below the threshold
same,pKd,[11]; [29],below the threshold
same,pKd,[12]; [29],3.55
same,pKd,[13]; [29],below the threshold
same,pKd,[14]; [29],below the threshold
same,pKd,[15]; [29],below the threshold
same,pKd,[16]; [29],below the threshold
same,pKd,[17]; [29],below the threshold
same,pKd,[18]; [29],below the threshold
same,pKd,[19]; [29],below the threshold
same,pKd,[20]; [29],below the threshold
same,pKd,[21]; [29],below the threshold
same,pKd,[22]; [29],3.52
same,pKd,[23]; [29],3.64
same,pKd,[24]; [29],4.44
same,pKd,[25]; [29],below the threshold
same,pKd,[26]; [29],4.01
same,pKd,[27]; [29],3.7
"LCALPKVTTV [AGMAT, Q9BSE5]",pKd,[1]; [29],below the threshold
same,pKd,[2]; [29],3.86
same,pKd,[3]; [29],5.87
same,pKd,[4]; [29],4.47
same,pKd,[5]; [29],5.29
same,pKd,[6]; [29],below the threshold
same,pKd,[7]; [29],3.72
same,pKd,[8]; [29],below the threshold
same,pKd,[9]; [29],4.01
same,pKd,[10]; [29],below the threshold
same,pKd,[11]; [29],below the threshold
same,pKd,[12]; [29],below the threshold
same,pKd,[13]; [29],below the threshold
same,pKd,[14]; [29],3.94
same,pKd,[15]; [29],3.61
same,pKd,[16]; [29],4.55
same,pKd,[17]; [29],4.64
same,pKd,[18]; [29],below the threshold
same,pKd,[19]; [29],below the threshold
same,pKd,[20]; [29],3.51
same,pKd,[21]; [29],below the threshold
same,pKd,[22]; [29],3.7
same,pKd,[23]; [29],3.62
same,pKd,[24]; [29],4.44
same,pKd,[25]; [29],below the threshold
same,pKd,[26]; [29],4.24
same,pKd,[27]; [29],4.24
"TETASVCTKV [SLC23A1, Q9UHI7]",pKd,[1]; [28],below the threshold
same,pKd,[2]; [28],4.64
same,pKd,[3]; [28],4.4
same,pKd,[4]; [28],below the threshold
same,pKd,[5]; [28],4.15
same,pKd,[6]; [28],3.76
same,pKd,[7]; [28],3.93
same,pKd,[8]; [28],below the threshold
same,pKd,[9]; [28],3.98
same,pKd,[10]; [28],below the threshold
same,pKd,[11]; [28],below the threshold
same,pKd,[12]; [28],below the threshold
same,pKd,[13]; [28],below the threshold
same,pKd,[14]; [28],below the threshold
same,pKd,[15]; [28],3.5
same,pKd,[16]; [28],3.58
same,pKd,[17]; [28],3.69
same,pKd,[18]; [28],3.82
same,pKd,[19]; [28],below the threshold
same,pKd,[20]; [28],3.7
same,pKd,[21]; [28],below the threshold
same,pKd,[22]; [28],3.62
same,pKd,[23]; [28],below the threshold
same,pKd,[24]; [28],4.12
same,pKd,[25]; [28],below the threshold
same,pKd,[26]; [28],3.59
same,pKd,[27]; [28],3.82
